Experimental data as given in PMC8411744, “Engineering a Highly Efficient Carboligase for Synthetic One-Carbon Metabolism” (ACS Catalysis, 2021).
Residue numbers refer to the chain shown, from its start. Names may count otherwise.

Assays:
[1] = target: T1, MeOXC (OXC, oxalyl-CoA decarboxylase) (Methylorubrum extorquens, UniProt C5AX46); assay: X-ray crystal structure, […] Å; assay type: binding; conditions: Mg2+; C-terminal 16 residues modelled
T1 construct: gene MexAM1_META1p0990; recombinant, produced in E. coli; purified; homotetramer; ThDP and Mg2+ dependent
T1 sequence (C5AX46 entry or part of it): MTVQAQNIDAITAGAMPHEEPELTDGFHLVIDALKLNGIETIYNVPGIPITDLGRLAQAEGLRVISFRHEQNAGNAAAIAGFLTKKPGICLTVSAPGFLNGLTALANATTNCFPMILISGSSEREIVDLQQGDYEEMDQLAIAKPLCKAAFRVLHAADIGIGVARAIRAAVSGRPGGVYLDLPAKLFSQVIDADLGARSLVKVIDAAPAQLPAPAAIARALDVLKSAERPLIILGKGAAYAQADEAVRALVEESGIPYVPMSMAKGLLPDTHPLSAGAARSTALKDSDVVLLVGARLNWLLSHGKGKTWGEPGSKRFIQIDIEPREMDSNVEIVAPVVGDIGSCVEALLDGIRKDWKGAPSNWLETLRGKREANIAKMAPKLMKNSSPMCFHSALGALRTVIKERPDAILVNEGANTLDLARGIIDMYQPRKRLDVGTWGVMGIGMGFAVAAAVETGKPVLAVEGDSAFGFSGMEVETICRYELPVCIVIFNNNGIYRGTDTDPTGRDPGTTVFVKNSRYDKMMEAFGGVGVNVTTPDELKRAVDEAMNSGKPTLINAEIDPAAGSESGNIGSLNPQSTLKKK

[2] = target: T2, MeOXC (OXC, oxalyl-CoA decarboxylase) (Methylorubrum extorquens, UniProt C5AX46, E135G/A415C/Y497F/S568G); assay: X-ray crystal structure, […] Å; assay type: binding; conditions: MeOXC4; Mg2+; C-terminus beyond E567 modelled
T2 construct: gene MexAM1_META1p0990; recombinant, produced in E. coli; purified; homotetramer; ThDP and Mg2+ dependent
From the text: Substitution E135G gave rise to a cavity in the ThDP binding pocket

[3] = substrate: CC(C)(COP(=O)(O)OP(=O)(O)OC[C@H]1O[C@@H](n2cnc3c(N)ncnc32)[C@H](O)[C@@H]1OP(=O)(O)O)[C@@H](O)C(=O)NCCC(=O)NCCSC(=O)C(=O)O; assay: oxalyl-CoA decarboxylation kinetics; assay type: biochemical, Methylorubrum extorquens; conditions: MeOXC4
[4] = substrate: CC(C)(COP(=O)(O)OP(=O)(O)OC[C@H]1O[C@@H](n2cnc3c(N)ncnc32)[C@H](O)[C@@H]1OP(=O)(O)O)[C@@H](O)C(=O)NCCC(=O)NCCSC=O; assay: steady-state kinetics, glycolyl-CoA synthase (carboligation) activity; assay type: biochemical, Methylorubrum extorquens; conditions: co-substrate formaldehyde, apparent
From the text: (§1) steady-state kinetics, glycolyl-CoA synthase (carboligation) activity on MeOXC (OXC, oxalyl-CoA decarboxylase)

[5] = substrate: C=O; assay: as above; assay type: biochemical, Methylorubrum extorquens; conditions: co-substrate formyl-CoA, apparent
From the text: as §1

[6] = substrate: CC(C)(COP(=O)(O)OP(=O)(O)OC[C@H]1O[C@@H](n2cnc3c(N)ncnc32)[C@H](O)[C@@H]1OP(=O)(O)O)[C@@H](O)C(=O)NCCC(=O)NCCSC(=O)CO; assay: CoA transfer from glycolyl-CoA to formate, Michaelis-Menten; assay type: biochemical, Clostridium aminobutyricum; conditions: formate 25 mM as acceptor
From the text: CoA transfer from glycolyl-CoA to formate, Michaelis-Menten on AbfT (4-hydroxybutyrate CoA-transferase) | AbfT).

## Cc1ncc(C[n+]2csc(CCOP(=O)(O)OP(=O)(O)O)c2C)c(N)n1 [ThDP]
[1]
  X-ray crystal structure, 1.9 Å: The overall structure of MeOXC with bound ThDP (orange)
[2]
  X-ray crystal structure, 2.4 Å: Active site of MeOXC4. Substitution E135G gave rise to a cavity in the ThDP binding pocket

B1: MeOXC (OXC, oxalyl-CoA decarboxylase) (Methylorubrum extorquens AM1; A415C/E135G/S568G/Y497F) (protein)
chain: MTVQAQNIDAITAGAMPHEEPELTDGFHLVIDALKLNGIETIYNVPGIPITDLGRLAQAEGLRVISFRHEQNAGNAAAIAGFLTKKPGICLTVSAPGFLNGLTALANATTNCFPMILISGSSEREIVDLQQGDYGEMDQLAIAKPLCKAAFRVLHAADIGIGVARAIRAAVSGRPGGVYLDLPAKLFSQVIDADLGARSLVKVIDAAPAQLPAPAAIARALDVLKSAERPLIILGKGAAYAQADEAVRALVEESGIPYVPMSMAKGLLPDTHPLSAGAARSTALKDSDVVLLVGARLNWLLSHGKGKTWGEPGSKRFIQIDIEPREMDSNVEIVAPVVGDIGSCVEALLDGIRKDWKGAPSNWLETLRGKREANIAKMAPKLMKNSSPMCFHSALGALRTVIKERPDAILVNEGCNTLDLARGIIDMYQPRKRLDVGTWGVMGIGMGFAVAAAVETGKPVLAVEGDSAFGFSGMEVETICRYELPVCIVIFNNNGIFRGTDTDPTGRDPGTTVFVKNSRYDKMMEAFGGVGVNVTTPDELKRAVDEAMNSGKPTLINAEIDPAAGSEGGNIGSLNPQSTLKKK
notes: recombinant, produced in E. coli; purified; homotetramer; ThDP and Mg2+ dependent
[3]
  Km: 122 ± 16 µM
  kcat: 0.21 ± 0.01 s^–1
[4]; MeOXC4
  Km: 220 ± 30 µM
  kcat: 2.4 ± 0.2 s⁻¹
  kcat/Km: 11000 M⁻¹ s⁻¹
[5]; MeOXC4
  Km: 5000 ± 1000 µM
  kcat: 2 ± 0.2 s⁻¹
  kcat/Km: 400 M⁻¹ s⁻¹

B2: MeOXC (OXC, oxalyl-CoA decarboxylase) (Methylorubrum extorquens AM1; A415C/S568G) (protein)
chain: B1 chain with G135E, F497Y
notes: as for B1
[4]; MeOXC2
  Km: 90 ± 20 µM
  kcat: 0.43 ± 0.02 s⁻¹
  kcat/Km: 5100 M⁻¹ s⁻¹
[5]; MeOXC2
  Km: 12000 ± 3000 µM
  kcat: 0.57 ± 0.05 s⁻¹
  kcat/Km: 50 M⁻¹ s⁻¹

B3: MeOXC (OXC, oxalyl-CoA decarboxylase) (Methylorubrum extorquens AM1; A415C/E135G/S568G) (protein)
chain: B1 chain with F497Y
notes: as for B1
[4]; MeOXC3
  Km: 170 ± 40 µM
  kcat: 1.6 ± 0.1 s⁻¹
  kcat/Km: 9400 M⁻¹ s⁻¹
[5]; MeOXC3
  Km: 12000 ± 3000 µM
  kcat: 1.6 ± 0.1 s⁻¹
  kcat/Km: 130 M⁻¹ s⁻¹

B4: MeOXC (OXC, oxalyl-CoA decarboxylase) (Methylorubrum extorquens AM1; A415C) (protein)
chain: B1 chain with G135E, F497Y, G568S
notes: as for B1
[4]; MeOXC1
  Km: 160 ± 50 µM
  kcat: 0.23 ± 0.01 s⁻¹
  kcat/Km: 1400 M⁻¹ s⁻¹
[5]; MeOXC1
  Km: 30000 ± 2000 µM
  kcat: 0.34 ± 0.01 s⁻¹
  kcat/Km: 10 M⁻¹ s⁻¹

B5: MeOXC (OXC, oxalyl-CoA decarboxylase) (Methylorubrum extorquens AM1) (protein)
chain: B1 chain with G135E, C415A, F497Y, G568S
notes: as for B1
[4]; concentrations in Table S4
  Km: 3000 ± 2000 µM
  kcat: 0.31 ± 0.08 s⁻¹
  kcat/Km: 100 M⁻¹ s⁻¹
[5]; concentrations in Table S4
  Km: 100000 ± 20000 µM
  kcat: 0.2 ± 0.01 s⁻¹
  kcat/Km: 2 M⁻¹ s⁻¹

B6: AbfT (4-hydroxybutyrate CoA-transferase) (Clostridium aminobutyricum) (protein)
chain: MDWKKIYEDRTCTADEAVKSIKSGDRVLFAHCVAEPPVLVEAMVANAAAYKNVTVSHMVTLGKGEYSKPEYKENFTFEGWFTSPSTRGSIAEGHGQFVPVFFHEVPSLIRKDIFHVDVFMVMVSPPDHNGFCCVGVSSDYTMQAIKSAKIVLAEVNDQVPVVYGDTFVHVSEIDKFVETSHPLPEIGLPKIGEVEAAIGKHCASLIEDGSTLQLGIGAIPDAVLSQLKDKKHLGIHSEMISDGVVDLYEAGVIDCSQKSIDKGKMAITFLMGTKRLYDFAANNPKVELKPVDYINHPSVVAQCSKMVCINACLQVDFMGQIVSDSIGTKQFSGVGGQVDFVRGASMSIDGKGKAIIAMPSVAKKKDGSMISKIVPFIDHGAAVTTSRNDADYVVTEYGIAEMKGKSLQDRARALINIAHPDFKDELKAEFEKRFNAAF
notes: purified
[6]
  Km: 12 ± 1 µM
  kcat: 0.40 ± 0.01 s^–1
